Reference: paper PMC7949057 (2021)
Numbering of substitutions follows the chain as printed. Names and notes keep the numbering of the source. Each block holds one binder with its values, some of them ahead of it.

Legend:
[1] = biological target: T1, Recombinant hamster GRP78 protein (hamster, UniProt G3I8R9 19-654, RED-tris-NTA dye held on the His-tag); experiment: MST
[2] = biological target: Substrate-binding domain (SBD) of GRP78 (RED-tris-NTA dye held on the His-tag); experiment: MST
[3] = biological target: T1, Recombinant hamster GRP78 protein; experiment: MST; 1 uM CaCl2
[4] = biological target: T1, Recombinant hamster GRP78 protein; experiment: MST; 100 uM CaCl2
[5] = biological target: T1, Recombinant hamster GRP78 protein; experiment: MST; 200 uM CaCl2

T1 sequence (G3I8R9 19-654): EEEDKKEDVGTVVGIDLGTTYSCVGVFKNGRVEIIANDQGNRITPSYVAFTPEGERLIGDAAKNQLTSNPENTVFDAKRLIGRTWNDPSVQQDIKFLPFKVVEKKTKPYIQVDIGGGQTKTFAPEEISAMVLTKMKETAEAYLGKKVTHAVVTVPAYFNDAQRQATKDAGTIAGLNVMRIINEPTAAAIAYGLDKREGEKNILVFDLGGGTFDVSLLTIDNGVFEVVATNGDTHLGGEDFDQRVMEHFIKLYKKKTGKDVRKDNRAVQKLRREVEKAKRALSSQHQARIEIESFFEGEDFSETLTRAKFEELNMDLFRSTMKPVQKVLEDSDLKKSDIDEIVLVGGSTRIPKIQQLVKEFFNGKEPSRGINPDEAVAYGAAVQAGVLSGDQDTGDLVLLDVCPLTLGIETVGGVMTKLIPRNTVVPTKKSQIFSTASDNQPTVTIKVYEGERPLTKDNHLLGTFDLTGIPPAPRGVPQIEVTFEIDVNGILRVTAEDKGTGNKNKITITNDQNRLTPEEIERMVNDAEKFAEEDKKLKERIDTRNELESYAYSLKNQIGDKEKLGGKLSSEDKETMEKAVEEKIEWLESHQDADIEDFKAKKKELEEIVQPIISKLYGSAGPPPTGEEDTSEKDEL
Sequence of Substrate-binding domain (SBD) of GRP78 (RED-tris-NTA dye held on the His-tag) (chain, as listed by the source): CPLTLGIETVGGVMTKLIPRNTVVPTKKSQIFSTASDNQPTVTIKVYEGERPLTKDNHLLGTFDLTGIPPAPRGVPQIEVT

Kd [1]: 216 nM
Kd [2]: 1400 nM
Kd [3]: 570 nM
Kd [4]: 500 nM
Kd [5]: 430 nM
B1: Recombinant human MANF protein (natural protein)
chain: LRPGDCEVCISYLGRFYQDLKDRDVTFSPATIENELIKFCREARGKENRLCYYIGATDDAATKIINEVSKPLAHHIPVEKICEKLKKKDSQICELKYDKQIDLSTVDLKKLRVKELKKILDDWGETCKGCAEKSDYIRKINELMPKYAPKAASARTDL

Kd [1]: 269 nM
B2: Recombinant MANF E153A mutant protein (natural protein)
chain: B1 chain with E132A
